Primed or numbered codes have the meaning given here. Where no end group is shown, it is not given here. [ ]: non-standard residue; d: D form. The star is where a group is joined. Hpra′ = its azide, alkyne or alkene has reacted where a group follows in round brackets; Man9 = Man9 glycan, attached by click reaction of Man9-azide with homopropargylglycine; maleimide‑biotin = maleimide-biotin reagent joined to deprotected Cys; For = O=C*
Columns and labels:
[1] = molecular target: HIV broadly neutralizing monoclonal antibody 2G12; assay: radiolabeled glycopeptide, 2G12 titration, protein G bead capture, scintillation counting
[2] = molecular target: HIV broadly neutralizing monoclonal antibody 2G12; assay: BLI (BLItz), biotin-10F2 on streptavidin sensor, 2G12 in solution at 0.5 nM
[3] = molecular target: HIV broadly neutralizing monoclonal antibody 2G12; assay: BLI (BLItz), biotin-10F2 on streptavidin sensor, 2G12 in solution at 2 nM; global 1:1 fit
[4] = molecular target: HIV broadly neutralizing monoclonal antibody 2G12; assay: BLI (BLItz), biotin-10F2 on streptavidin sensor, 2G12 in solution at 2 nM
[5] = molecular target: HIV broadly neutralizing monoclonal antibody 2G12; assay: BLI (BLItz), biotin-10F2 on streptavidin sensor, 2G12 in solution at 1 nM; global 1:1 fit
[6] = molecular target: HIV broadly neutralizing monoclonal antibody 2G12; assay: BLI (BLItz), biotin-10F2 on streptavidin sensor, 2G12 in solution at 32 nM; global 1:1 fit
[7] = molecular target: HIV broadly neutralizing monoclonal antibody 2G12; assay: BLI (BLItz), biotin-10F2 on streptavidin sensor, 2G12 in solution at 4 nM; global 1:1 fit
[8] = molecular target: HIV broadly neutralizing monoclonal antibody 2G12; assay: BLI (BLItz), biotin-10F2 on streptavidin sensor, 2G12 in solution at 8 nM; global 1:1 fit
[9] = molecular target: HIV broadly neutralizing monoclonal antibody 2G12; assay: BLI (BLItz), biotin-10F2 on streptavidin sensor, 2G12 in solution at 0.5 nM; global 1:1 fit
[10] = molecular target: HIV broadly neutralizing monoclonal antibody 2G12; assay: BLI (BLItz), biotin-10F2 on streptavidin sensor, 2G12 in solution at 16 nM; global 1:1 fit
[11] = molecular target: HIV broadly neutralizing monoclonal antibody 2G12; assay: BLI (BLItz), biotin-10F2 on streptavidin sensor, 2G12 in solution at 8 nM
[12] = molecular target: HIV broadly neutralizing monoclonal antibody 2G12; assay: BLI (BLItz), biotin-10F2 on streptavidin sensor, 2G12 in solution at 4 nM
[13] = molecular target: HIV broadly neutralizing monoclonal antibody 2G12; assay: BLI (BLItz), biotin-10F2 on streptavidin sensor, 2G12 in solution at 32 nM
[14] = molecular target: HIV broadly neutralizing monoclonal antibody 2G12; assay: BLI (BLItz), biotin-10F2 on streptavidin sensor, 2G12 in solution at 16 nM
[15] = molecular target: HIV broadly neutralizing monoclonal antibody 2G12; assay: BLI (BLItz), biotin-10F2 on streptavidin sensor, 2G12 in solution at 1 nM

B1: glycopeptide 10F5 (Fixed library, round 10) (peptide)
peptide: For-[Hpra′](Man9)SPHLPVLLCK[Hpra′](Man9)VLNDGRRIVQ[Hpra′](Man9)SCELP[Hpra′](Man9)VRRSGSGSLGHHHHHHRDYKDDDDK
modifications: not fully specified; cysteine pairing not given here
Fmax [1]: 93% | Kd [1]: 0.97 nM

B2: biotinylated synthetic 10F2 glycopeptide 3 (peptide)
peptide: For-[Hpra′](Man9)HPYNTSRTSA[Hpra′](Man9)[Hpra′](Man9)AALK[Hpra′](Man9)QVTD[Hpra′](Man9)YALALFHRILGSGSGC(maleimide‑biotin)A
Req [2]: 0.481 | Kd [3]: 1.37 nM | koff [3]: 0.000151 s⁻¹ | kon [3]: 111000 M⁻¹ s⁻¹ | Req [4]: 0.987 | Kd [5]: 1.37 nM | koff [5]: 0.000151 s⁻¹ | kon [5]: 111000 M⁻¹ s⁻¹ | Kd [6]: 1.37 nM | koff [6]: 0.000151 s⁻¹ | kon [6]: 111000 M⁻¹ s⁻¹ | Kd [7]: 1.37 nM | koff [7]: 0.000151 s⁻¹ | kon [7]: 111000 M⁻¹ s⁻¹ | Kd [8]: 1.37 nM | koff [8]: 0.000151 s⁻¹ | kon [8]: 111000 M⁻¹ s⁻¹ | Kd [9]: 1.37 nM | koff [9]: 0.000151 s⁻¹ | kon [9]: 111000 M⁻¹ s⁻¹ | Kd [10]: 1.37 nM | koff [10]: 0.000151 s⁻¹ | kon [10]: 111000 M⁻¹ s⁻¹ | Req [11]: 1.37 | Req [12]: 1.26 | Req [13]: 1.39 | Req [14]: 1.41 | Req [15]: 0.682

B3: glycopeptide 10F12 (Fixed library, round 10) (peptide)
peptide: For-[Hpra′](Man9)CYVTVIPA[Hpra′](Man9)N[Hpra′](Man9)PEARLGIVCH[Hpra′](Man9)PGIRRGKALYGSGSLGHHHHHHRDYKDDDDK
modifications: not fully specified; cysteine pairing not given here
Fmax [1]: 90% | Kd [1]: 0.77 nM
